In PMC1887688:

Molecular target: MHC class II (HLA-DR1) on human LG-2 cells (human (endogenous in LG-2))
Experiment: radioligand binding

## SMEZ-2, recombinant (natural protein)
  KD, high affinity site: 0.025 µM
  KD, low affinity site: 1 µM
